{"source": "paper PMC3386633", "key": {"[1]": {"biological_target": "HOL-18, 18 kDa chitotriose-binding lectin from Halichondria okadai (Halichondria okadai)", "assay": "SDS-PAGE after timed heat treatment; purified lectin in sample buffer (0.2% SDS, with or without 2% 2-mercaptoethanol) heated at 70 °C for 5-60 min; the 36 kDa dimer was retained up to 15 min and dissociated within 20-30 min"}, "[2]": {"biological_target": "porcine stomach mucin (porcine)", "assay": "SPR; PSM coupled to a CM5 chip (5800 RU), HOL-18 as analyte in HBS buffer, 20 uL/min, 25 °C, BIAcore 3000, 1:1 model, BIAevaluation 3.0; bound lectin removed with 200 mM D-GlcNAc"}, "[3]": {"biological_target": "HOL-18, 18 kDa chitotriose-binding lectin from Halichondria okadai (Halichondria okadai)", "assay": "SEC; gel permeation chromatography on Superdex 75 (1.0 x 32 cm), HPLC, 0.5 mL/min, 20 ug purified lectin, native conditions, calibrated with marker proteins"}, "[4]": {"biological_target": "HOL-18, 18 kDa chitotriose-binding lectin from Halichondria okadai (Halichondria okadai)"}}, "data": [{"molecule": "HOL-18, 18 kDa chitotriose-binding lectin from Halichondria okadai (natural protein)", "values": [{"measurement": "stoichiometry N", "setting": "[1]", "value": 2}, {"measurement": "Kd", "setting": "[2]", "value": 4.4, "unit": "µM"}, {"measurement": "koff", "setting": "[2]", "value": 0.0061, "unit": "s⁻¹"}, {"measurement": "kon", "setting": "[2]", "value": 1400, "unit": "M⁻¹ s⁻¹"}, {"measurement": "stoichiometry N", "setting": "[3]", "value": 4}]}, {"molecule": "bovine submaxillary mucin (natural protein)", "values": [{"measurement": "minimum inhibitory concentration of the hemagglutination of human type A erythrocytes by HOL-18 (16 HA units)", "setting": "[4]", "value": 125, "unit": "µg/mL"}]}, {"molecule": "porcine stomach mucin (natural protein)", "values": [{"measurement": "minimum inhibitory concentration of the hemagglutination of human type A erythrocytes by HOL-18 (16 HA units)", "setting": "[4]", "value": 10, "unit": "µg/mL"}]}, {"molecule": "fetuin (natural protein, O-linked oligosaccharides and sialyl N-acetyllactosamine (Neu5Acα2-3/6Galβ1-4GlcNAc) chains in complex-type N-linked glycans) IPLDPVAGYKEPACDDPDTEQAALAAVDYINKHLPRGYKHTLNQIDSVKVWPRRPTGEVYDIEIDTLETTCHVLDPTPLANCSVRQQTQHAVEGDCDIHVLKQDGQFSVLFTKCDSSPDSAEDVRKLCPDCPLLAPLNDSRVVHAVEVALATFNAESNGSYLQLVEISRAQFVPLPVSVSVEFAVAATDCIAKEVVDPTKCNLLAEKQYGFCKGSVIQKALGGEDVRVTCTLFQTQPVIPQPQPDGAEAEAPSAVPDAAGPTPSAAGPPVASVVVGPSVVAVPLPLHRAHYDLRHTFSGVASVESSSGEAFHVGKTPIVGQPSIPGGPVRLCPGRIRYFKI", "values": [{"measurement": "minimum inhibitory concentration of the hemagglutination of human type A erythrocytes by HOL-18 (16 HA units)", "setting": "[4]", "value": 125, "unit": "µg/mL"}]}]}
